Results taken from patent publication US6576753B1, “DNA encoding human leukotriene C4 synthase” (The Brigham and Women's Hospital, Inc., priority 1994, dated 2003).
Numbering of substitutions follows the chain as printed. Names may count otherwise. “Also recorded” adds a separate entry of the source. Where two headings read alike, the source gives them in different places.

Test system: LTC4 synthase
Test: Conjugation of LTA4-ME with GSH by solubilized microsomes of COS cells transfected with wild-type or mutant LTC4 synthase
Conditions: for Function / effect on Km of GSH / Km: COS cell microsome; for conjugation function of transfected COS cell microsomes: compared to wild-type construct
Method: OF THE EXPRESSED PROTEINS: COS-7 cells were transfected with either wild-type LTC4 synthase cDNA or the mutated LTC4 synthase cDNA by DEAE-dextran transfection (Lam et al., Proc. Natl. Acad. Sci. USA., 91:7663, 1994). Three days after transfection, the cells were harvested by treatment with trypsin and suspended in microsomal buffer (50 mM HEPES buffer pH 7.9 containing 2 mM EDTA and 10 mM β-mercaptoethanol) at a concentration of 5×10^6 cells/ml. The cells were lysed by sonication with a Branson microtip sonicator (Danbury, Conn.) at a setting of 7. Cell lysates were centrifuged at 100,000×g for 60 min at 4° C., and the pellets (microsomes) were resuspended in microsomal buffer and were solubilized by the addition of 0.4% Triton X-102, 0.4% sodium deoxycholate (DOC), and 10% glycerol and stirring at 4° C. for 45 min.
The function of each mutant enzyme as well as the wild-type enzyme was first screened by the incubation of 1-10 μl of solubilized COS cell microsomes with 10 mM GSH and 20 μM LTA4-ME in 200 μl 50 mM HEPES buffer containing 10 mM MgCl2, pH 7.6. The reactions were carried out at room temperature for 10 min and stopped by the addition of 3 vol methanol containing 200 ng prostaglandin B2 (PGB2) as an internal standard. LTC4-ME levels in the samples were determined with high performance liquid chromatography (HPLC).
Reverse phase (RP)-HPLC was carried out with a model 126 dual pump system and model 167 scanning UV detector (Beckman Instruments) controlled by an Gateway 2000 P4D66 computer equipped with Beckman System Gold software. Samples were applied to a 5-μm 4.6×250-mm C18 Ultrasphere reverse phase column (Beckman Instruments) equilibrated with a solvent of methanol/acetonitrile/water/acetic acid (10:15:100:0.2, v/v), pH 6.0 (solvent A). Immediately after the sample was injected, the column was eluted at a flow rate of 1 ml/min with a programmed concave gradient (System Cold curve 6) to 20% solvent A and 80% solvent B (pure methanol) over 0.2 min with continuation isocratically for 5.8 min. Beginning at 6 min, solvent B was increased linearly to 100% over 0.2 min and was maintained at this level for 7 min more. The ultraviolet absorbance at 280 nm and the ultraviolet spectra were recorded simultaneously. The retention times for PGB2 and LTC4-ME were 7.4 and 8.9 min, respectively. LTC4-ME was quantitated by calculating the ratio of the peak area to the area of the internal standard PGB2.

A52S: LTC4 synthase point mutant
Function: 80 % of WT
effect on Km of GSH: did exhibit an increase in Km for GSH
Km (read-out: Km GSH): 30000 µM
Km (read-out: Km LTA4-ME): 4.5 µM

C56S: LTC4 synthase point mutant
conjugation function of transfected COS cell microsomes: do not affect conjugation function
conjugation function of transfected COS cell microsomes (listed as C56 to S56): None of the mutations affected conjugation function

E45Q: LTC4 synthase point mutant
conjugation function of transfected COS cell microsomes: did not attenuate the conjugation function; also recorded: did not affect the function

E47Q: LTC4 synthase point mutant
conjugation function of transfected COS cell microsomes: did not attenuate the conjugation function; also recorded: did not affect the function

E58Q: LTC4 synthase point mutant
conjugation function of transfected COS cell microsomes: did not attenuate the conjugation function

E76Q: LTC4 synthase point mutant
conjugation function of transfected COS cell microsomes: did not affect the function

F46Y: LTC4 synthase point mutant
conjugation function of transfected COS cell microsomes: did not affect the function

F60Y: LTC4 synthase point mutant
conjugation function of transfected COS cell microsomes: did not affect the function

H75Q: LTC4 synthase point mutant
conjugation function of transfected COS cell microsomes: did not affect the function

L39F: LTC4 synthase point mutant
conjugation function of transfected COS cell microsomes: did not affect the function

L62T: LTC4 synthase point mutant
Function: 100 % of WT
conjugation function of transfected COS cell microsomes: did not affect the function
Km (read-out: Km GSH): 2500 µM
Km (read-out: Km LTA4-ME): 6.7 µM

N55A: LTC4 synthase point mutant of the consensus N-glycosylation site
Function: 85 % of WT
effect on Km of GSH: increase the Km of GSH
Km (read-out: Km GSH): 10700 µM
Km (read-out: Km LTA4-ME): 7.7 µM

Q53N: LTC4 synthase point mutant
conjugation function of transfected COS cell microsomes: did not affect the function

R48S: LTC4 synthase point mutant
conjugation function of transfected COS cell microsomes: did not attenuate the conjugation function; also recorded: did not affect the function

R51I: LTC4 synthase point mutant
conjugation function of transfected COS cell microsomes: do not show conjugation activity
conjugation function of transfected COS cell microsomes (listed as Arg 51 to isoleucine): abolished the functional activity

R51K: LTC4 synthase point mutant
Function: 100 % of WT
conjugation function of transfected COS cell microsomes: activity was not diminished
Km (read-out: Km GSH): 2300 µM
Km (read-out: Km LTA4-ME): 9.4 µM

R92S: LTC4 synthase point mutant
conjugation function of transfected COS cell microsomes: did not affect the function

R99S: LTC4 synthase point mutant
conjugation function of transfected COS cell microsomes: did not affect the function

R104S: LTC4 synthase point mutant
conjugation function of transfected COS cell microsomes: did not affect the function

S100V: LTC4 synthase point mutant
conjugation function of transfected COS cell microsomes: did not affect the function

S111V: LTC4 synthase point mutant
conjugation function of transfected COS cell microsomes: did not affect the function

T66V: LTC4 synthase point mutant
conjugation function of transfected COS cell microsomes: did not affect the function

V49F: LTC4 synthase point mutant
Function: 100 % of WT
Km (read-out: Km GSH): 9200 µM
Km (read-out: Km LTA4-ME): 10 µM

V54Q: LTC4 synthase point mutant
conjugation function of transfected COS cell microsomes: did not affect the function

V69S: LTC4 synthase point mutant
conjugation function of transfected COS cell microsomes: did not affect the function

V69T: LTC4 synthase point mutant
Function: 100 % of WT
Km (read-out: Km GSH): 2000 µM
Km (read-out: Km LTA4-ME): 19 µM

Y50F: LTC4 synthase point mutant
conjugation function of transfected COS cell microsomes: did not affect the function

Y59F: LTC4 synthase point mutant
Function: 100 % of WT
Km (read-out: Km GSH): 15500 µM
Km (read-out: Km LTA4-ME): 19 µM

Y97F: LTC4 synthase point mutant
Function: 100 % of WT
Km (read-out: Km GSH): 16500 µM
Km (read-out: Km LTA4-ME): 16.5 µM

Y109I: LTC4 synthase point mutant
Function: 100 % of WT
conjugation function of transfected COS cell microsomes: did not affect the function
Km (read-out: Km GSH): 1600 µM
Km (read-out: Km LTA4-ME): 20 µM

B1: Q25K: LTC4 synthase point mutant (protein, UniProt Q16873 1-150, looked up, variant Q25K)
Leukotriene C4 synthase: MKDEVALLAAVTLLGVLLQAYFSLKVISARRAFRVSPPLTTGPPEFERVYRAQVNCSEYFPLFLATLWVAGIFFHEGAAALCGLVYLFARLRYFQGYARSAQLRLAPLYASARALWLLVALAALGLLAHFLPAALRAALLGRLRTLLPWA
conjugation function of transfected COS cell microsomes: did not affect the function

B2: R51I/WT: recombinant pseudo-heterodimer of R51I LTC4 synthase monomer and wild-type monomer (protein, UniProt Q16873 1-150, looked up, variant R51I)
Leukotriene C4 synthase: B1 Leukotriene C4 synthase with K25Q, R51I
modifications: heterodimer with wild-type monomer
Function: 90 % of WT
conjugation function of transfected COS cell microsomes: retained enzymatic function
Km (read-out: Km GSH): 3200 µM
Km (read-out: Km LTA4-ME): 6.5 µM

B3: deletion of the charged amino acids K2 and D3 at the amino terminus: LTC4 synthase deletion mutant (protein, UniProt Q16873 1-150, looked up, variant K2* D3*)
Leukotriene C4 synthase: MEVALLAAVTLLGVLLQAYFSLQVISARRAFRVSPPLTTGPPEFERVYRAQVNCSEYFPLFLATLWVAGIFFHEGAAALCGLVYLFARLRYFQGYARSAQLRLAPLYASARALWLLVALAALGLLAHFLPAALRAALLGRLRTLLPWA
conjugation function of transfected COS cell microsomes: Neither the deletion of the charged amino acids K2 and D3 at the amino terminus nor the deletion of the 14 amino acids at the carboxyl terminus altered the function
